Assay results from patent publication US20160002331A1.

Assays:
Assay in all cases: cell-based or functional assay
[1] = target: Notch1 receptor with L1594P/D1610V mutations (DND-41 cells), P46531
[2] = target: Notch1 receptor with L1594P mutation (ALL-SIL cells), P46531
[3] = target: Notch1 receptor with a 17 amino acid insertion at position 1740 (Jurkat cells), P46531
[4] = target: Notch1 receptor with L1601P mutation (MOLT-4 cells), P46531
Sequence of Notch1 receptor with L1601P mutation (MOLT-4 cells), P46531 (P46531 19-2555, stated change not applied): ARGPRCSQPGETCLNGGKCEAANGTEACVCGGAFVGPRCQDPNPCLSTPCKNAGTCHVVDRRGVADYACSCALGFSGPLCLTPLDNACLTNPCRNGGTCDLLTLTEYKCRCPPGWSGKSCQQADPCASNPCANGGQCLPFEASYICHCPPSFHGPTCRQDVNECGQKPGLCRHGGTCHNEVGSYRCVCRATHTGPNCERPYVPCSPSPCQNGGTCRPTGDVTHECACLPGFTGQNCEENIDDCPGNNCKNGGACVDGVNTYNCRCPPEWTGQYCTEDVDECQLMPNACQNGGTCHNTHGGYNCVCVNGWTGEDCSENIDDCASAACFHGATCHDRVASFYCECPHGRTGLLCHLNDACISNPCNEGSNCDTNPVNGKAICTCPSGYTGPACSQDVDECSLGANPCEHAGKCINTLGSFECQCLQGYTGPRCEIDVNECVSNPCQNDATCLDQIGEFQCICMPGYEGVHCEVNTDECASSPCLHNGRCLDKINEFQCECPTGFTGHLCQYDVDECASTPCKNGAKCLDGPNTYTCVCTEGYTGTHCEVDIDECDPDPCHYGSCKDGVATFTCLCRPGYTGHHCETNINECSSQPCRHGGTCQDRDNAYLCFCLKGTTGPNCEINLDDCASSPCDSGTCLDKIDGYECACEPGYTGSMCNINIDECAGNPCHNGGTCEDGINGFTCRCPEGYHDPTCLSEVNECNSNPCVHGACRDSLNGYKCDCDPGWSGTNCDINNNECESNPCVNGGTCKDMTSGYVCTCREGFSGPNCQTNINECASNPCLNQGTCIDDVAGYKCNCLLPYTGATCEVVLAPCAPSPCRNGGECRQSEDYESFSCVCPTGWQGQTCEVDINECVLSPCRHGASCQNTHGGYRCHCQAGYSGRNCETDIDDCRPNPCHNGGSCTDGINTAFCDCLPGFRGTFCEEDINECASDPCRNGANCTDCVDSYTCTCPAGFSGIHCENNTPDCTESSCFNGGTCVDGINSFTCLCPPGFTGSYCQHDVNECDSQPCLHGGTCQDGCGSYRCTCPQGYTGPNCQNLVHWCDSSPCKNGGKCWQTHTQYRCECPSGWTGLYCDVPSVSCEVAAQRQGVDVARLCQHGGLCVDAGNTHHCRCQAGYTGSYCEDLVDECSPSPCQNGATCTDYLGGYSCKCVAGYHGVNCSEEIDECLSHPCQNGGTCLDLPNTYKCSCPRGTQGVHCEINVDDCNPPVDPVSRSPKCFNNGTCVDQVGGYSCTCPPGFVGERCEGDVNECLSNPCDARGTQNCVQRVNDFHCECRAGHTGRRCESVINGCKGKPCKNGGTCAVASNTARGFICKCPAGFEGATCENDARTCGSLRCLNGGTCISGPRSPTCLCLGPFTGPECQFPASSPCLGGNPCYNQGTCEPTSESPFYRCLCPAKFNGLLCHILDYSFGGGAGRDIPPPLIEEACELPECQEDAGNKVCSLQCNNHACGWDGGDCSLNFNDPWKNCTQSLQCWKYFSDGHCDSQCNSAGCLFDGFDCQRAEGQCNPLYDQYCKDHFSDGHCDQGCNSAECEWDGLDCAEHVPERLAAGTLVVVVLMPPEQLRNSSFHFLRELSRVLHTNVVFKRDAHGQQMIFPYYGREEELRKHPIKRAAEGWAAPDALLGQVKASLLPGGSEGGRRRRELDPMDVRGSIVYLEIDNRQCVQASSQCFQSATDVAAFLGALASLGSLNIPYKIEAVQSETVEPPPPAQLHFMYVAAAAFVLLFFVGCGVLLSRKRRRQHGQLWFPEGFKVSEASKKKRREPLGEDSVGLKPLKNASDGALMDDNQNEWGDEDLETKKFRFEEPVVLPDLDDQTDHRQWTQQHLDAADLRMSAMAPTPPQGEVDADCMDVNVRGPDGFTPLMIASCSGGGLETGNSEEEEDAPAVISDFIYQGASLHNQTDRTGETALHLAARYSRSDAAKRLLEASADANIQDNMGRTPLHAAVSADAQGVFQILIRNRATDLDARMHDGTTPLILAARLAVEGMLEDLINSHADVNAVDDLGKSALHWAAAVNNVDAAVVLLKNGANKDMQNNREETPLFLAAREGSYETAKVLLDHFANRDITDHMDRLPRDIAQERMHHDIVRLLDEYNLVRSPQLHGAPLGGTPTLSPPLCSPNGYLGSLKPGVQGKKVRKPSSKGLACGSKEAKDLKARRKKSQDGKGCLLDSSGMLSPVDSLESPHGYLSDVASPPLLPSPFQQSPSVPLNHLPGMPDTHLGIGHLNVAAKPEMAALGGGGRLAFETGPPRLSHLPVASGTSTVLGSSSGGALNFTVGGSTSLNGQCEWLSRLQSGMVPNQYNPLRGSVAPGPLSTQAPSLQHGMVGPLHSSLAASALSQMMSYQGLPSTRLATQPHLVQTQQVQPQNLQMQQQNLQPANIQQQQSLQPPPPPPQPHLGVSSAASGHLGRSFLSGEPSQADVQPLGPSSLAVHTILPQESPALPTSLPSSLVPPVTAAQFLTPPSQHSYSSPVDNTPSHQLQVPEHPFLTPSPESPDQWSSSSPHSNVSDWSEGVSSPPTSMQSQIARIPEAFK

Sequence of Notch1 receptor with a 17 amino acid insertion at position 1740 (Jurkat cells), P46531 (P46531 19-2555): as the sequence (P46531 19-2555, stated change not applied) above
Sequence of Notch1 receptor with L1594P/D1610V mutations (DND-41 cells), P46531 (P46531 19-2555, stated change not applied): as above
Sequence of Notch1 receptor with L1594P mutation (ALL-SIL cells), P46531 (P46531 19-2555, stated change not applied): as above

B1: rat 351-mIgG1 (antibody, V domains shown)
VH: EVQLVESGGGLVQPGRSLKVSCLASGFTFSHYGMNWIRQAPGKGLDWVASISRSGSYIRYVDTVKGRFTVSRDIAKNTLYLQMTSLRSEDTALYYCAREGQFGDYFEYWGQGVMVTVSS
VL: DIMLTQSPATLSVTPGERISLSCRASQKISTNLHWYQQKPNESPRILIKYASQTISGIPSRFSGSGSGTDFTLHINTVEPEDFSVYYCQQTNSWPLTFGSGTKLEIK
- Normalized Notch1^ICD level, DND-41 cells, 0.001 µg/ml antibody (relative to untreated) [1]: 1.02
- Normalized Notch1^ICD level, DND-41 cells, 0.01 µg/ml antibody (relative to untreated) [1]: 0.988
- Normalized Notch1^ICD level, DND-41 cells, 0.1 µg/ml antibody (relative to untreated) [1]: 0.367
- Normalized Notch1^ICD level, DND-41 cells, 1 µg/ml antibody (relative to untreated) [1]: 0.322
- Normalized Notch1^ICD level, DND-41 cells, 10 µg/ml antibody (relative to untreated) [1]: 0.219
- Normalized Notch1^ICD level, ALL-SIL cells, 0.001 µg/ml antibody (relative to untreated) [2]: 0.982
- Normalized Notch1^ICD level, ALL-SIL cells, 0.01 µg/ml antibody (relative to untreated) [2]: 0.712
- Normalized Notch1^ICD level, ALL-SIL cells, 0.1 µg/ml antibody (relative to untreated) [2]: 0.08
- Normalized Notch1^ICD level, ALL-SIL cells, 1 µg/ml antibody (relative to untreated) [2]: 0.03
- Normalized Notch1^ICD level, ALL-SIL cells, 10 µg/ml antibody (relative to untreated) [2]: 0.019
- Normalized Notch1^ICD level, Jurkat cells, 0.001 µg/ml antibody (relative to untreated) [3]: 1.53
- Normalized Notch1^ICD level, Jurkat cells, 0.01 µg/ml antibody (relative to untreated) [3]: 1.44
- Normalized Notch1^ICD level, Jurkat cells, 0.1 µg/ml antibody (relative to untreated) [3]: 1.41
- Normalized Notch1^ICD level, Jurkat cells, 1 µg/ml antibody (relative to untreated) [3]: 1.08
- Normalized Notch1^ICD level, Jurkat cells, 10 µg/ml antibody (relative to untreated) [3]: 1.2
- Normalized Notch1^ICD level, MOLT-4 cells, 0.01 µg/ml antibody (relative to untreated) [4]: 1.52
- Normalized Notch1^ICD level, MOLT-4 cells, 0.1 µg/ml antibody (relative to untreated) [4]: 0.751
- Normalized Notch1^ICD level, MOLT-4 cells, 1 µg/ml antibody (relative to untreated) [4]: 0.284
- Normalized Notch1^ICD level, MOLT-4 cells, 10 µg/ml antibody (relative to untreated) [4]: 0.082
